From paper PMC11680790, “Structural and functional determination of peptide versus small molecule ligand binding at the apelin receptor” (Nature Communications, 2024)
One block for each substance: values may come before it.

Tests used:
[1] = molecular target: wild-type apelin receptor tagged C-terminally with eGFP (human) (UniProt P35414); assay: fluorescent ligand binding on cells (high content confocal imaging); CHO-K1 cells transiently transfected with receptor-eGFP; apelin647 300 nM or ELA647 1 µM in HBSS, 90 min, room temperature, washed and fixed; mean membrane fluorescence of eGFP-positive cells as % WT; non-specific binding with 10 µM [Pyr1]apelin-13
[2] = molecular target: apelin receptor NxStaR (stabilised human apelin receptor) (human) (UniProt P35414); assay: SPR; Biacore 8K+; receptors immobilised on NTA chip (Ni-NTA capture and amine coupling); 10 °C; pH 6.0 buffer ([…] MES, […] NaCl, 0.02% DDM, 5% DMSO); single-cycle, four concentrations; 1:1 model
[3] = molecular target: apelin receptor NxStaR (stabilised human apelin receptor) (human) (UniProt P35414); assay: SPR; Biacore 8K+; receptors immobilised on NTA chip (Ni-NTA capture and amine coupling); 10 °C; pH 7.5 buffer (0.01 M HEPES, […] NaCl, 0.02% DDM, 5% DMSO); single-cycle, four concentrations; 1:1 model
[4] = molecular target: apelin receptor NxStaR (stabilised human apelin receptor) (human) (UniProt P35414); assay: SPR; Biacore T200; receptor immobilised on NTA chip (Ni-NTA capture and amine coupling); 10 °C; 0.01 M HEPES pH 7.5, […] NaCl, 0.02% DDM, 5% DMSO; single-cycle, 6.25-100 nM for Apelin-13 and ΔC2; 1:1 model

Chain of wild-type apelin receptor tagged C-terminally with eGFP (human) (P35414 whole entry): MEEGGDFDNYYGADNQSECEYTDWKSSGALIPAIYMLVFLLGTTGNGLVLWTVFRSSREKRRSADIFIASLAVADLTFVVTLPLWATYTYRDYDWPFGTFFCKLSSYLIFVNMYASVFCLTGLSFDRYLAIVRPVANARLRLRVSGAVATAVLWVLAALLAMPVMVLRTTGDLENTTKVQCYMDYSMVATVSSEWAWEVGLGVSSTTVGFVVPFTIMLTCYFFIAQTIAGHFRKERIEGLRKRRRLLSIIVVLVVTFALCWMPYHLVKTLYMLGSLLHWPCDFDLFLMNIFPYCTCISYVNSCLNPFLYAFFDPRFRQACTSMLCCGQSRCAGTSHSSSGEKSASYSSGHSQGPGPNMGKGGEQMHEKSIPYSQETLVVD

membrane ELA647 fluorescence (% WT) [1]: 100 % WT
Substance: ELA647 fluorescently labelled peptide

Kd [2]: 21 nM
Kd [3]: 3.27 nM
Substance: NXE'992, chimeric peptide (pyrazole-QRPRL[AIB]S[PipALA]VPFP)

membrane apelin647 fluorescence (% WT) [1]: 100 % WT
Substance: apelin647 fluorescently labelled peptide

Kd [4]: 5.79 nM
Substance: apelin-13 ΔC2 (C-terminally truncated apelin-13 ending with M11) (peptide)
